Data on 1 protein can be found in paper PMC2568912 (The Journal of Biological Chemistry, 2008).

This data set concerns the molecule itself. Kind of data set: non-reducing SDS-PAGE with immunoblot. (In general: Immunoblotting shows a protein as a band on a membrane.)

B1: N-terminal HA-tagged PKD2 mutant L703X (domain or fragment, human, UniProt Q13563 1-702, looked up)
chain: MVNSSRVQPQQPGDAKRPPAPRAPDPGRLMAGCAAVGASLAAPGGLCEQRGLEIEMQRIRQAAARDPPAGAAASPSPPLSSCSRQAWSRDNPGFEAEEEEEEVEGEEGGMVVEMDVEWRPGSRRSAASSAVSSVGARSRGLGGYHGAGHPSGRRRRREDQGPPCPSPVGGGDPLHRHLPLEGQPPRVAWAERLVRGLRGLWGTRLMEESSTNREKYLKSVLRELVTYLLFLIVLCILTYGMMSSNVYYYTRMMSQLFLDTPVSKTEKTNFKTLSSMEDFWKFTEGSLLDGLYWKMQPSNQTEADNRSFIFYENLLLGVPRIRQLRVRNGSCSIPQDLRDEIKECYDVYSVSSEDRAPFGPRNGTAWIYTSEKDLNGSSHWGIIATYSGAGYYLDLSRTREETAAQVASLKKNVWLDRGTRATFIDFSVYNANINLFCVVRLLVEFPATGGVIPSWQFQPLKLIRYVTTFDFFLAACEIIFCFFIFYYVVEEILEIRIHKLHYFRSFWNCLDVVIVVLSVVAIGINIYRTSNVEVLLQFLEDQNTFPNFEHLAYWQIQFNNIAAVTVFFVWIKLFKFINFNRTMSQLSTTMSRCAKDLFGFAIMFFIIFLAYAQLAYLVFGTQVDDFSTFQECIFTQFRIILGDINFAEIEEANRVLGPIYFTTFVFFMFFILLNMFLAIINDTYSEVKSDLAQQKAEMELSD
With B1, the “stoichiometry N” value came to 2.

The stoichiometry N is the number of molecules, sites or subunits per partner or assembly.
